Assay: soluble on expression in E. coli; label from the status in PepcDB or PDB records

Soluble on expression in E. coli, soluble:
MSLYKIGELSKIVNLSIETIRYYEKIRLIPKPERFNNRYKKYSEMYIYRLKIIIKAKNYGFTLHEISNFLSEVSTSSIEDIDLSSTIMNKVQQIEKECERLNYKKNQLLKFEEEINDLQCPVLNRIINEKNEGHHHHHH
MSMVVDSVPDSSTFVGKTIRPVAAVSIHGIVFDGERLLAVDSKNGYLLEIDPYTNNTKLLNGQYWQEFIGATGLAIADRQLWFSSGQYVYTCNLEGPDLKPEVFAWFDDPVNGVAIWESTVYITCHKRGHIWVYGRDTRKLVATFYSPGIGVENITVRGEELWVCDSAEQSVYCLDRATGEINFSLITPFESPTGLAFYDDQAVGKATLYVAYVQQEPYVRDNPNADPNHELMYRETTFIHPLYFYNDPHQCCAFSNGYLVEMRYVEELAPLDPVDLKQVEWRMALPAVTPRQRIRKIESVGLPFSRIDDVNGQKVAVFEFDQLDLDSRAVFGWRVEMEVWGIKYRLKPSDCEHLPALPEGFADRYLVDNDNLSMETDIIIRAAAEAIGRETNLLRQMFNIRNYVYDRLSYGIKPHIDTPDLALRRGVGSCGEYVGVLLALARLNGIACRTAGRYKCPPHPLQRNLPMEPDFNHVWFEFYLPGIGWLPMESNPDDTNDGGPYPTRFFMGLAWYHAETAKDVPFEQLLSQGIPVNKQVVSIGELAINHVQFTILEELDPAAHLAHLEHHHHHH
MSNIYDSANELSRGLRGLPEYKAVKAAKDAIAADAEASKIFTDYLAFQEEIQKLAQTGQMPDASFQAKMEGFGKQIQGNSLLSEFFTKQQQLAIYLSDIEKIVFEPVSELLK
MSNQYGDKNLKIFSLNSNPELAKEIADIVGVQLGKCSVTRFSDGEVQINIEESIRGCDCYIIQSTSDPVNEHIMELLIMVDALKRASAKTINIVIPYYGYARQDRKARSREPITAKLFANLLETAGATRVIALDLHAPQIQGFFDIPIDHLMGVPILGEYFEGKNLEDIVIVSPDHGGVTRARKLADRLKAPIAIIDKRRPRPNVAEVMNIVGNIEGKTAILIDDIIDTAGTITLAANALVENGAKEVYACCTHPVLSGPAVERINNSTIKELVVTNSIKLPEEKKIERFKQLSVGPLLAEAIIRVHEQQSVSYLFS

Soluble on expression in E. coli, not soluble:
MSLYDELKNEFKRVLLDRQLTEELAEECATAFTDTTQAGAYSHGINRFPRFIQQLEQGDIVPNAIPTKVLSLGSIEQWDAHQAIGNLTAKKMMDRAIELASQHGVGVIALRNANHWMRGGSYGWQAAEKGYIGICWTNALAVMPPWGAKECRIGTNPLIIAVPTTPITMVDMSCSMYSYGMLEVHRLAGRQTFVDAGFDDEGNLTRDPSIVEKNRRLLPMGFWKGSGLSIVLDMIATLLSNGESTVAVTEDKNDEYCVSQVFIAIEVDRLIDGKSKDEKLNRIMDYVKTAERSDPTQAVRLPGHEFTTILSDNQTNGIPVDERVWAKLKTLEGHHHHHH
MSLYGGIPTNLVSGMSSAGAICTTQIRDAREREKREIGLLNDRLADYIEKVRFLKAQNHVLSHDIEILRRGFSGGGHISSFFESEISNCTVISERILSSRTKFQADITGLEGEIEIYRKKWLEALKVVRSHREDHHVNLDKLAEVEAQIALFNRKIRIVEEDVLRIRRETGGIQNDIGRIHSQIHAEIALKNERHHSVQMLLQRVQVIQTENSSRIEQELIYIHRDTTLENRDYFRQELQAAMRDIRANYEAMSIRSREDIEIAYRKRIDEIRVIPAHVHIEDYREELLSIRTTLSTTHSRLAEIESRNAWLLTTITDLKHQQAEEARIFEATLDAKQATYEQFKERCTELSIQMEKLCDHETSLQAELERYRVLLNGANVTTYVSNSTGAAGYRSSTHVATTTTTTTNGYSSGYTAGGYTSGGYTTGGYTRGITAGGAVGGISTGGYIGRSSSSHGISVGGNIGGVSVGGHINGYHASGDISAAGRHHESSYSYSSSNN
MSMSDIGGKDRLNDEKRVTVRLSRSMVEEMEDLVNRDEYESVSDLVRKAVSALLESRGVNSDFLPVQIMVPKNLIEKLGKDSTKPVNLSLDEFSSLILDRINGLTVRETIKKIVHEENIK
MSNDVYIIGAGETKFGELWDKSLRDLAVEAGLEAIKDANIYSKDLQMLYASNSLAGTINEQSNIAALAADFSGIAENHVPAVRVEASTASGGAAVREAYLAIKSGEYDVVMVGGVEKMTDIYGTEIIDVQSSILDREWESFNGATPAAMAAIAARRYMHDFNVEREAISMVAVNDHANASLNPDAQYRNKITVDQVLNSDPVAEPLNVFDCSPITDGASAIILASEGFVKKNRIDGVRIL

Reference: the DeepSol protein solubility set
